This is an account of results in article PMC6559208, “Phylogeny‐guided characterization of glycosyltransferases for epothilone glycosylation” (Microbial Biotechnology, 2019).

In general, kcat refers to the number of substrate molecules converted per active site and unit of time at saturation. The term kcat/Km denotes the turnover number divided by the Michaelis constant.

For one series, the system named is T1, BssGT.
T1 construct: synthetic gene in pET28a, His tag, E. coli BL21(DE3), nickel-purified
As to the kind of experiment: UPLC-PDA glycosylation assay, Michaelis-Menten fit. In kind it is biochemical, Bacillus inaquosorum. The settings on record: 10 mM UDP-glucose, 10 mM MgCl2, Tris-HCl pH 7.5, 37 °C, 10 min; read-out: Acceptor substrate (epothilone A) / K m. The source says: UPLC-PDA glycosylation assay, Michaelis-Menten fit on BssGT

The subject of another series is T2, BcGT-1.
T2 construct: synthetic gene in pET28a, His tag, E. coli BL21(DE3), nickel-purified
In words: UPLC-PDA glycosylation assay, Michaelis-Menten fit. It counts as biochemical, Bacillus cereus. The settings on record: 10 mM UDP-glucose, 10 mM MgCl2, Tris-HCl pH 7.5, 37 °C, 10 min; read-out: Acceptor substrate (epothilone A) / K m. The source says:
UPLC-PDA glycosylation assay, Michaelis-Menten fit on BcGT-1

A further series has as its target T3, BsGT-2 (Bacillus subtilis, UniProt O05496).
T3 construct: gene ydhE; synthetic gene in pET28a, His tag, E. coli BL21(DE3), nickel-purified
In words: LC-MS conversion assay. It counts as biochemical. The note with it: assay mix 0.5 mM epothilone A, 3 mM UDP-glucose, 10 mM MgCl2, Tris-HCl, 400 μg/ml enzyme, no HPLC product peak, Km not determined.

Series [1] deals with C/C(=C\c1csc(C)n1)[C@@H]1C[C@@H]2O[C@@H]2CCC[C@H](C)[C@H](O)[C@@H](C)C(=O)C(C)(C)[C@@H](O)CC(=O)O1. As to the kind of experiment: UPLC-PDA glycosylation assay, Michaelis-Menten fit. The settings on record: 10 mM UDP-glucose, 10 mM MgCl2, Tris-HCl pH 7.5, 37 °C, 10 min. In kind it is biochemical, Bacillus atrophaeus. The source says:
UPLC-PDA glycosylation assay, Michaelis-Menten fit on BaGT

The test system is the same in series [2]. As to the kind of experiment: UPLC-PDA glycosylation assay, Michaelis-Menten fit. In kind it is biochemical, Bacillus velezensis. The note with it: 10 mM UDP-glucose, 10 mM MgCl2, Tris-HCl pH 7.5, 37 °C, 10 min. The source says: UPLC-PDA glycosylation assay, Michaelis-Menten fit on BamGT
Series [3] has the same test system. As to the kind of experiment: UPLC-PDA glycosylation assay, Michaelis-Menten fit. It counts as biochemical, Bacillus licheniformis. The settings on record: 10 mM UDP-glucose, 10 mM MgCl2, Tris-HCl pH 7.5, 37 °C, 10 min. The source says:
UPLC-PDA glycosylation assay, Michaelis-Menten fit on YjiC

For series [4] the test system is unchanged. In words: UPLC-PDA glycosylation assay, Michaelis-Menten fit. In kind it is biochemical, Bacillus subtilis. The settings on record: 10 mM UDP-glucose, 10 mM MgCl2, Tris-HCl pH 7.5, 37 °C, 10 min. The source says: UPLC-PDA glycosylation assay, Michaelis-Menten fit on YojK

T3 sequence (O05496 whole entry): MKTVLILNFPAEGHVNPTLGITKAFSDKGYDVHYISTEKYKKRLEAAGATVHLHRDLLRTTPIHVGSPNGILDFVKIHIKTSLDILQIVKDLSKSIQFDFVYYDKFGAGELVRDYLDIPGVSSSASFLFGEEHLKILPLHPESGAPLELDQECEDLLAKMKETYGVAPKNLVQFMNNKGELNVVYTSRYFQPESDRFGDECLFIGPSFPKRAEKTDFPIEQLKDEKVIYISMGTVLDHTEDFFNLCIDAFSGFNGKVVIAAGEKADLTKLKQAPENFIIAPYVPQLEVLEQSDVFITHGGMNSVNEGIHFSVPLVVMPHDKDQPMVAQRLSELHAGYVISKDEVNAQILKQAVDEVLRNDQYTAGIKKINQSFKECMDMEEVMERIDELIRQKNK

On to `C/C(=C\c1csc(C)n1)[C@@H]1C[C@@H]2O[C@@H]2CCC[C@H](C)[C@H](O)[C@@H](C)C(=O)C(C)(C)[C@@H](O)CC(=O)O1` [epothilone A], for which the Km in the series with BssGT was 1590 ± 117 µM; in the series with BcGT-1, 1200 ± 215 µM. The “% conversion after 10 h” value on BsGT-2 is recorded as 0.03%.

As to BaGT (Bacillus atrophaeus 1942), in series [1], the Km worked out at 113.66 ± 10.55 µM, the kcat worked out at 0.113 ± 0.00417 s⁻¹ and the kcat/Km worked out at 990 M⁻¹ s⁻¹.

For the compound BamGT (Bacillus velezensis FZB42), in series [2], the Km was 2245.74 ± 311.96 µM, the kcat came to 0.0182 ± 0.00117 s⁻¹ and the kcat/Km was 8.33 M⁻¹ s⁻¹.

Turning to “YjiC (Bacillus licheniformis DSM 13 = ATCC 14580)”, in series [3], the Km is 94.58 ± 2.95 µM, the kcat worked out at 0.192 ± 0.00317 s⁻¹ and the kcat/Km came out at 2030 M⁻¹ s⁻¹.

In the case of “YojK (Bacillus subtilis subsp. subtilis str. 168)”, in series [4], the Km turned out to be 1720.77 ± 161.35 µM, the kcat was found to be 0.0205 ± 0.00117 s⁻¹ and the catalytic efficiency (kcat/Km) stood at 11.8 M⁻¹ s⁻¹.
